Measurements: IntAct's records for PubMed 14699056

B1: Dolichyl-diphosphooligosaccharide--protein glycosyltransferase subunit WBP1 (Saccharomyces cerevisiae), P33767 (parent)
chain: MRTDWNFFFCILLQAIFVVGTQTSRTLVLYDQSTEPLEEYSVYLKDLEQRNYKLEYLDINSTSTTVDLYDKEQRLFDNIIVFPTKGGKNLARQIPVKQLIKFFENEGNILCMSSPGAVPNTIRLFLNELGIYPSPKGHVIRDYFSPSSEELVVSSNHLLNKYVYNARKSEDFVFGESSAALLENREQIVPILNAPRTSFTESKGKCNSWTSGSQGFLVVGFQNLNNARLVWIGSSDFLKNKNQDSNQEFAKELLKWTFNEKSVIKSVHAVHSHADGTSYDEEPYKIKDKVIYSVGFSEWNGEEWLPHIADDIQFELRQVDPYYRLTLSPSGNDSETQYYTTGEFILPDRHGVFTFLTDYRKIGLSFTTDKDVKAIRHLANDEYPRSWEISNSWVYISAICGVIVAWIFFVVSFVTTSSVGKKLETFKKTN
partner: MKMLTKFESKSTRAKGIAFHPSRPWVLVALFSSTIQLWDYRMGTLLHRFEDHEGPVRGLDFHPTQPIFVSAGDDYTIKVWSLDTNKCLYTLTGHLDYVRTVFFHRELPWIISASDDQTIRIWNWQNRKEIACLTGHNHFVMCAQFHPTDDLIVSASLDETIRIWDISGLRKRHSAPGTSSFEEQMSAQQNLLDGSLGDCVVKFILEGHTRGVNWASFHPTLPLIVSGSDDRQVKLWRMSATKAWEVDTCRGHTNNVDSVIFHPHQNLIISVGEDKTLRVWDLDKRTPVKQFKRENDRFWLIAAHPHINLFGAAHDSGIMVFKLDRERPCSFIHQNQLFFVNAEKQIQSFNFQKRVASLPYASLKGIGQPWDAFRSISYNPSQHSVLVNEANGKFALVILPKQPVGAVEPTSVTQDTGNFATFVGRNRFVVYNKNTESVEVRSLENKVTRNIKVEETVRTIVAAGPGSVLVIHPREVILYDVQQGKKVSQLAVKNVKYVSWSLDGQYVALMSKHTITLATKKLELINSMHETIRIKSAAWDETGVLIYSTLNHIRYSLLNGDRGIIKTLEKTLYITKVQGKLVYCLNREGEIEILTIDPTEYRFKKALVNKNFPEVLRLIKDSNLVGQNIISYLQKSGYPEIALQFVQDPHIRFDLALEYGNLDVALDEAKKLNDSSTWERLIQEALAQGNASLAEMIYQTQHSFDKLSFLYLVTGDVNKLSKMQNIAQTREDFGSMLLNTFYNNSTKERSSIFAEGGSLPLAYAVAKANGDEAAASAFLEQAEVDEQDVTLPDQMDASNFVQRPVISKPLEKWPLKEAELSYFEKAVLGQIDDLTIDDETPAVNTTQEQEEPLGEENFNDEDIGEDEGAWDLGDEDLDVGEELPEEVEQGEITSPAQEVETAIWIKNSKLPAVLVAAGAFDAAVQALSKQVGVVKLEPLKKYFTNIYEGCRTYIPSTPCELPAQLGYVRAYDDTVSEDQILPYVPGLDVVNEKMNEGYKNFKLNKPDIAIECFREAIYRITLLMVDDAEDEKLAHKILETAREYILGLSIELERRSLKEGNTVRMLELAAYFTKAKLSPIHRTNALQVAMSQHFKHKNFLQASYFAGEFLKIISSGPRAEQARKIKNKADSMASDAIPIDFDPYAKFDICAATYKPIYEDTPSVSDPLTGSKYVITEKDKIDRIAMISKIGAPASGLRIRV
B2: Protein EMP47 (Saccharomyces cerevisiae), P43555 (parent)
chain: MMMLITMKSTVLLSVFTVLATWAGLLEAHPLGDTSDASKLSSDYSLPDLINARKVPNNWQTGEQASLEEGRIVLTSKQNSKGSLWLKQGFDLKDSFTMEWTFRSVGYSGQTDGGISFWFVQDSNVPRDKQLYNGPVNYDGLQLLVDNNGPLGPTLRGQLNDGQKPVDKTKIYDQSFASCLMGYQDSSVPSTIRVTYDLEDDNLLKVQVDNKVCFQTRKVRFPSGSYRIGVTAQNGAVNNNAESFEIFKMQFFNGVIEDSLIPNVNAMGQPKLITKYIDQQTGKEKLIEKTAFDADKDKITNYELYKKLDRVEGKILANDINALETKLNDVIKVQQELLSFMTTITKQLSSKPPANNEKGTSTDDAIAEDKENFKDFLSINQKLEKVLVEQEKYREATKRHGQDGPQVDEIARKLMIWLLPLIFIMLVMAYYTFRIRQEIIKTKLL
partner: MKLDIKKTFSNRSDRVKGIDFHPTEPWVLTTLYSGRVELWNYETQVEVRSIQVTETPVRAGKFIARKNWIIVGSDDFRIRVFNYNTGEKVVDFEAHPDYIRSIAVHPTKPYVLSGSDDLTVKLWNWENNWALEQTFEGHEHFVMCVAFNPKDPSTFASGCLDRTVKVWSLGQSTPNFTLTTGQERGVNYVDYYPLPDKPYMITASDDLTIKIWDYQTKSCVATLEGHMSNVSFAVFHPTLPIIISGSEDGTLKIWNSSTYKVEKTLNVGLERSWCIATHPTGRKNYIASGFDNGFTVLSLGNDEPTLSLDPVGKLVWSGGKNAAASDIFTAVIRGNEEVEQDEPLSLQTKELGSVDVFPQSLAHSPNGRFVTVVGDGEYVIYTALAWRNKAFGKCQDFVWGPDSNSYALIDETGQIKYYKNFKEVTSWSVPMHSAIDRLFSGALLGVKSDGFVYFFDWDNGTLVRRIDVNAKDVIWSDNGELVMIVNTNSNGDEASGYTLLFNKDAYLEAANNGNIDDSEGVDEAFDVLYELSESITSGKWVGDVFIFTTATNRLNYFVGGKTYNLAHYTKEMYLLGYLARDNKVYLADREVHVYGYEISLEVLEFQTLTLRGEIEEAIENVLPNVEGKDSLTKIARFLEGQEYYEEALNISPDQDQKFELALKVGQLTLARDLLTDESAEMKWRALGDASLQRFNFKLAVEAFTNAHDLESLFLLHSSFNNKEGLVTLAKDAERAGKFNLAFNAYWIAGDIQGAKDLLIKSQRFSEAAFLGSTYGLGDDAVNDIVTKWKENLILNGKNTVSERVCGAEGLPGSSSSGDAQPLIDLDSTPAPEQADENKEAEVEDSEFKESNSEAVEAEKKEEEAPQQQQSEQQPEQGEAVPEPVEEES

Variants of: B1
Settings: with copa_yeast COP1, P53622

Variant	effect of a mutation on the interaction
MRTDWNFFFCILLQAIFVVGTQTSRTLVLYDQSTEPLEEYSVYLKDLEQRNYKLEYLDINSTSTTVDLYDKEQRLFDNIIVFPTKGGKNLARQIPVKQLIKFFENEGNILCMSSPGAVPNTIRLFLNELGIYPSPKGHVIRDYFSPSSEELVVSSNHLLNKYVYNARKSEDFVFGESSAALLENREQIVPILNAPRTSFTESKGKCNSWTSGSQGFLVVGFQNLNNARLVWIGSSDFLKNKNQDSNQEFAKELLKWTFNEKSVIKSVHAVHSHADGTSYDEEPYKIKDKVIYSVGFSEWNGEEWLPHIADDIQFELRQVDPYYRLTLSPSGNDSETQYYTTGEFILPDRHGVFTFLTDYRKIGLSFTTDKDVKAIRHLANDEYPRSWEISNSWVYISAICGVIVAWIFFVVSFVTTSSVGKKLETFAATN [K427A;K428A]	decreasing interaction

Variants of: B2
Settings: with copb2_yeast SEC27, P41811

Variant	effect of a mutation on the interaction
MMMLITMKSTVLLSVFTVLATWAGLLEAHPLGDTSDASKLSSDYSLPDLINARKVPNNWQTGEQASLEEGRIVLTSKQNSKGSLWLKQGFDLKDSFTMEWTFRSVGYSGQTDGGISFWFVQDSNVPRDKQLYNGPVNYDGLQLLVDNNGPLGPTLRGQLNDGQKPVDKTKIYDQSFASCLMGYQDSSVPSTIRVTYDLEDDNLLKVQVDNKVCFQTRKVRFPSGSYRIGVTAQNGAVNNNAESFEIFKMQFFNGVIEDSLIPNVNAMGQPKLITKYIDQQTGKEKLIEKTAFDADKDKITNYELYKKLDRVEGKILANDINALETKLNDVIKVQQELLSFMTTITKQLSSKPPANNEKGTSTDDAIAEDKENFKDFLSINQKLEKVLVEQEKYREATKRHGQDGPQVDEIARKLMIWLLPLIFIMLVMAYYTFRIRQEIISTSLL [K441S;K443S]	decreasing interaction
